The supplement of paper PMC7877785
± gives the uncertainty stated by the source.

Experiment: self-splicing fitness, log relative to wild type (ln ratio); higher = more splicing; Tetrahymena group I intron in knt gene, E. coli kanamycin selection, DiMSum; sequences stand for … in CUCUCU…GGAGGGAAAAGUUAUCAGGCAUGCACCUGGUAGCUAGUCUUUAAACCAAUAGAUUGCAUCGGUUUAAAAGGCAAGACCGUCAAAUUGCGGGAAAGGGGUCAACAGCCGUUCAGUACCAAGUCUCAGGGGAAACUUUGAGAUGGCCUUGCAAAGGGUAUGGUAAUAAGCUGACGGACAUGGUCCUAACCACGCAGCCAAGUCCUAAGUCAACAGAUCUUCUGUUGAUAUGGAUGCAGUUCACAGACUAAAUGUCGGUCGGGGAAGAUGUAUUCUUCUCAUAAGAUAUAGUCGGACCUCUCCUUAAUGGGAGCUAGCGGAUGAAGUGAUGCAACACUGGAGCCGCUGGGAACUAAUUUGUAUGCGAAAGUAUAUUGAUUAGUUUUGGAGUACUCGUGGUCG
How it was run: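 DiMSum derived fitness as the error-weighted combination of fold changes across replicates, kanamycin versus no kanamycin, normalised to wild type. E. coli BL21(DE3) held the library, which randomised all eight P1ex-region intron nucleotides within the knt kanamycin-resistance gene on pET-22b(+). Six replicate transformations grew overnight at 37°C or 30°C on LB agar with or without 25 μg/mL kanamycin, also containing 100 μg/mL carbenicillin, 50 μM IPTG and 0.2% rhamnose, and pooled colonies were amplicon-sequenced on an Illumina HiSeq 2500.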

Row | Sequence | self-splicing fitness (ln) (30 °C) | self-splicing fitness (ln) (37 °C)
1 | AGUGAGCAAUAUUACGCCUA | -3 ± 0.3 | -0.802 ± 0.18
2 | AGUGAGCAAUAUUACGCUAU | -3.19 ± 0.23 | -2.43 ± 0.42
3 | AGUGAGCAAUAUUACGCUCU | – | -2.1 ± 0.34
4 | AGUGAGCAAUAUUACGGUAA | – | -1.43 ± 0.34
5 | AGUGAGCAAUAUUACGGUAU | -3.9 ± 0.23 | -2.31 ± 0.24
6 | AGUGAGCAAUAUUACGGUCC | -0.948 ± 0.12 | -0.741 ± 0.15
7 | AGUGAGCAAUAUUACGGUCU | -0.639 ± 0.11 | -0.463 ± 0.12
8 | AGUGAGCAAUAUUACGUAGA | -3.84 ± 0.23 | -3.38 ± 0.32
9 | AGUUAGCAAUAUUACGAACG | -0.391 ± 0.088 | 0.572 ± 0.14
10 | AGUUAGCAAUAUUACGAAUC | -2.57 ± 0.15 | -2.03 ± 0.21
11 | AGUUAGCAAUAUUACGACUG | -0.637 ± 0.13 | -0.00615 ± 0.18
12 | AGUUAGCAAUAUUACGAGUC | -2.76 ± 0.33 | -3.27 ± 0.47
13 | AGUUAGCAAUAUUACGAGUG | -3.77 ± 0.31 | -1.78 ± 0.25
14 | AGUUAGCAAUAUUACGAUAU | -1.55 ± 0.16 | -0.311 ± 0.19
15 | AGUUAGCAAUAUUACGAUGA | -1.32 ± 0.18 | -0.239 ± 0.16
16 | AGUUAGCAAUAUUACGAUUC | -2.04 ± 0.24 | -0.169 ± 0.26
17 | AGUUAGCAAUAUUACGCAGC | -2.29 ± 0.16 | -1.18 ± 0.16
18 | AGUUAGCAAUAUUACGCCCU | -0.19 ± 0.12 | -0.312 ± 0.15
19 | AGUUAGCAAUAUUACGCGUA | -1.77 ± 0.22 | -0.709 ± 0.15
20 | AGUUAGCAAUAUUACGGACG | -0.568 ± 0.16 | 0.616 ± 0.18
21 | AGUUAGCAAUAUUACGGCCC | -0.803 ± 0.33 | –
22 | AGUUAGCAAUAUUACGGCGU | -0.00974 ± 0.12 | 0.274 ± 0.12
23 | AGUUAGCAAUAUUACGGGCG | -0.303 ± 0.16 | -0.0474 ± 0.17
24 | AGUUAGCAAUAUUACGUACU | -1.16 ± 0.13 | -0.298 ± 0.12

Row | Sequence | self-splicing fitness (ln) (30 °C) | self-splicing fitness (ln) (37 °C)
25 | AGUUAGCAAUAUUACGUCAU | -2.48 ± 0.1 | -1.81 ± 0.13
26 | AGUUAGCAAUAUUACGUUAC | -3.26 ± 0.3 | -2.69 ± 0.33
27 | AGUUAGCAAUAUUACGUUCC | -0.837 ± 0.14 | -0.127 ± 0.18
28 | AGUUAGCAAUAUUACGUUGC | -4.72 ± 0.41 | -2.21 ± 0.21
29 | AGUUAGCAAUAUUACGUUGU | -4.38 ± 0.37 | -3.36 ± 0.37
30 | AGUUAGCAAUAUUACGUUUA | -2.23 ± 0.21 | -1.06 ± 0.21
31 | AUAAAGCAAUAUUACGAACC | -1.28 ± 0.18 | -0.77 ± 0.25
32 | AUAAAGCAAUAUUACGACCC | 0.352 ± 0.21 | 0.804 ± 0.26
33 | AUAAAGCAAUAUUACGACCU | -0.0242 ± 0.097 | 0.381 ± 0.12
34 | AUAAAGCAAUAUUACGAGAA | -2.7 ± 0.19 | -1.85 ± 0.23
35 | AUAAAGCAAUAUUACGAGUA | -1.12 ± 0.086 | -0.205 ± 0.12
36 | AUAAAGCAAUAUUACGAUGG | -2.15 ± 0.13 | -1.03 ± 0.18
37 | AUAAAGCAAUAUUACGAUUA | -0.144 ± 0.073 | 0.683 ± 0.095
38 | AUAAAGCAAUAUUACGCAAG | -1.19 ± 0.12 | -0.742 ± 0.14
39 | AUAAAGCAAUAUUACGCACC | -0.896 ± 0.33 | -1.02 ± 0.29
40 | AUAAAGCAAUAUUACGCAGA | -1.87 ± 0.093 | -0.796 ± 0.11
41 | AUAAAGCAAUAUUACGCCCU | 0.347 ± 0.15 | 0.95 ± 0.18
42 | AUAAAGCAAUAUUACGCGAC | -1.4 ± 0.13 | -0.298 ± 0.13
43 | AUAAAGCAAUAUUACGCUCG | 0.147 ± 0.1 | 0.699 ± 0.13
44 | AUAAAGCAAUAUUACGCUCU | 0.0815 ± 0.089 | 0.0503 ± 0.1
45 | AUAAAGCAAUAUUACGGACC | -0.681 ± 0.16 | -0.941 ± 0.24
46 | AUAAAGCAAUAUUACGGAGG | -3.18 ± 0.18 | -1.67 ± 0.24
47 | AUAAAGCAAUAUUACGGCAU | 0.53 ± 0.098 | -0.0243 ± 0.11
48 | AUAAAGCAAUAUUACGGCCC | 0.659 ± 0.39 | 0.503 ± 0.43

Row | Sequence | self-splicing fitness (ln) (30 °C) | self-splicing fitness (ln) (37 °C)
49 | AUAAAGCAAUAUUACGGCCG | -0.128 ± 0.1 | 0.3 ± 0.16
50 | AUAAAGCAAUAUUACGGCUU | -0.708 ± 0.1 | -0.569 ± 0.12
51 | AUAAAGCAAUAUUACGGGCA | -0.434 ± 0.077 | -0.368 ± 0.08
52 | AUAAAGCAAUAUUACGGGGG | -2.77 ± 0.28 | -2.66 ± 0.28
53 | AUAAAGCAAUAUUACGGUAG | -2.82 ± 0.1 | -1.74 ± 0.12
54 | AUAAAGCAAUAUUACGGUGA | -0.436 ± 0.09 | -0.422 ± 0.11
55 | AUAAAGCAAUAUUACGUCGU | -0.554 ± 0.046 | 0.314 ± 0.064
56 | AUAAAGCAAUAUUACGUGAC | -2.94 ± 0.19 | -1.57 ± 0.18
57 | AUAAAGCAAUAUUACGUGAG | -1.27 ± 0.076 | -1.07 ± 0.12
58 | AUAAAGCAAUAUUACGUGCU | -1.29 ± 0.08 | -0.736 ± 0.11
59 | AUAAAGCAAUAUUACGUUAA | -1.62 ± 0.087 | -1.16 ± 0.12
60 | AUACAGCAAUAUUACGAACA | -1.78 ± 0.17 | 0.157 ± 0.14
61 | AUACAGCAAUAUUACGAAUA | -2.51 ± 0.12 | -0.987 ± 0.11
62 | AUACAGCAAUAUUACGACAU | 0.131 ± 0.011 | 0.288 ± 0.032
63 | AUACAGCAAUAUUACGACGC | -0.948 ± 0.13 | 0.227 ± 0.16
64 | AUACAGCAAUAUUACGAGAU | -3.35 ± 0.14 | -1.18 ± 0.11
65 | AUACAGCAAUAUUACGAUAG | -2.57 ± 0.18 | -3 ± 0.34
66 | AUACAGCAAUAUUACGCAGC | -4.34 ± 0.45 | -1.87 ± 0.19
67 | AUACAGCAAUAUUACGCAUC | -3.69 ± 0.16 | -2.8 ± 0.21
68 | AUACAGCAAUAUUACGCCGC | -3.8 ± 0.27 | -2.19 ± 0.2
69 | AUACAGCAAUAUUACGCCUA | -1.1 ± 0.11 | -0.472 ± 0.12
70 | AUACAGCAAUAUUACGCUGU | -4.13 ± 0.36 | -3.51 ± 0.33
71 | AUACAGCAAUAUUACGGAAG | -3.36 ± 0.14 | -2.21 ± 0.14
72 | AUACAGCAAUAUUACGGAAU | -2.34 ± 0.1 | -1.54 ± 0.13

Row | Sequence | self-splicing fitness (ln) (30 °C) | self-splicing fitness (ln) (37 °C)
73 | AUACAGCAAUAUUACGGAGU | -1.72 ± 0.085 | -1.72 ± 0.11
74 | AUACAGCAAUAUUACGGAUG | -2.7 ± 0.2 | -2.05 ± 0.14
75 | AUACAGCAAUAUUACGGCAA | -0.488 ± 0.076 | 0.0743 ± 0.078
76 | AUACAGCAAUAUUACGGCCC | -1.15 ± 0.19 | -0.184 ± 0.28
77 | AUACAGCAAUAUUACGGCGA | -1.08 ± 0.096 | -0.781 ± 0.11
78 | AUACAGCAAUAUUACGGGAC | -2.14 ± 0.15 | -1.74 ± 0.17
79 | AUACAGCAAUAUUACGGGGA | -2.98 ± 0.21 | -2.3 ± 0.14
80 | AUACAGCAAUAUUACGGGGC | -2.65 ± 0.12 | -3.57 ± 0.2
81 | AUACAGCAAUAUUACGUAGA | -2.11 ± 0.085 | -0.327 ± 0.076
82 | AUACAGCAAUAUUACGUCCC | -0.874 ± 0.14 | -0.261 ± 0.18
83 | AUACAGCAAUAUUACGUGAC | -1.57 ± 0.095 | -0.945 ± 0.13
84 | AUACAGCAAUAUUACGUGAG | -1.51 ± 0.06 | -0.677 ± 0.097
85 | AUACAGCAAUAUUACGUGCA | -1.01 ± 0.083 | -0.648 ± 0.085
86 | AUACAGCAAUAUUACGUGGU | -2.71 ± 0.13 | -2.27 ± 0.14
87 | AUACAGCAAUAUUACGUGUA | -2.3 ± 0.093 | -1.32 ± 0.095
88 | AUACAGCAAUAUUACGUUAA | -3.26 ± 0.18 | -1.41 ± 0.11
89 | AUACAGCAAUAUUACGUUCC | -2.46 ± 0.15 | -0.684 ± 0.14
90 | AUACAGCAAUAUUACGUUGA | -2.53 ± 0.095 | -1.44 ± 0.088
91 | AUAGAGCAAUAUUACGACAC | -0.57 ± 0.15 | -0.0339 ± 0.2
92 | AUAGAGCAAUAUUACGACCC | -2.56 ± 0.47 | -1.4 ± 0.42
93 | AUAGAGCAAUAUUACGACUC | -0.707 ± 0.11 | -0.0412 ± 0.15
94 | AUAGAGCAAUAUUACGAGUG | -3.25 ± 0.21 | -0.0938 ± 0.18
95 | AUAGAGCAAUAUUACGCCUU | -1.66 ± 0.12 | 0.354 ± 0.16
96 | AUAGAGCAAUAUUACGCUAG | -1.01 ± 0.15 | -0.475 ± 0.15
